# Experimental data from the DeepSol protein solubility set.
# Experiment: soluble on expression in E. coli; label from the status in PepcDB or PDB records
row,Sequence,soluble on expression in E. coli
1,MGSSHHHHHHSSGRENLYFQGHMPSNLNIVKVTKPQEENKNFLHKNTNEPNEMEQSQTQEAVTENFTENSNLSANEHAARRGRLNLKTVDHIETYPIVQETEEIAKKIALTRIILAQTKPRIDKVVVSRPVQAVAPVVNFFDKMANSTLSTVERVVPSLKTKTYKRLGEEIALPYTLSKKYGKQLRDTTARNGDNYVYQPVHGRLMKFRKYYNEKFIDTKGKPLIRGQLDPVLLPVNNTFEKVTVKYLPKGKKVPNDSFSCEFNRGLALEYNFMTRAVSAVSHQVVGIAKLPIAYGYHTNSVYNKNLDKQADLKMKNVLRGTWDTITDLEREIWASVTDRSLFRFFGNKSEGGDLPHLVQ,soluble
2,MGSSHHHHHHSSGRENLYFQGHMTRSAEPRVLQFCHGYDGPFLDCARQYASLFAGTPYKVTTVFLTGRSDPEVAARCASDEVLFLEYGSRDIRGLKLKAIRDLREIARSRDFRFCIAHRFKPIWIASLATRLPIVGVHHAFGDYQRLSRKVFAGLMSKRLSLLAVSDAVRDDIRRCLPKWPAERIETLYNRIDVAALQAEQVERLSARRQLRLPDEAWVVGNVGRLHPDKDQATLLRGFAAALPRLPQNSLLAILGSGRLEEQLKDLACELGIGERVLFLGQVEEARRYFKAFDAFALSSDHEPFGMVLLEAMVAGVPLIATACGGAREVVEGVGILFPLGDETALAEGLTHLAALDRRQREACARLMLERLETRFSDAAVRREFWRLPTIAGFASESAC,soluble
3,MGSYIQMSGIGSRLRQERERLGLSQKVFGEIGGVEANAQGKYESGDRAPKADYLSRVAAKGVDVLYVLTGSRIPIQSGGLSQTEEKVLDCYRALFKEDQDAICRLTSTLAELSASQGERRKAQVRE,soluble
4,MGTFNNSIQEKIEKLQKTVDTLLHMGENMDCICVDDLSLLNKEIHEQINDLYPYHGKTAEQEAALCLSLLMGYSVSMYANSEDEAKKKTVLRRSQMILKNQLPSPLKIQLHTIYDKLLS,not soluble
5,MGTIGKKAAKGASVKFSESSTQAVIKATYLQVFGRDVYEGQRLKVQEIKLENGEISVRDFVRALAKSDLFRKLYWTPFYVCKAIEYIHRRLLGRPTYGRQENNKYFDIASKKGLYAVVDAILDSLEYTETFGEDTVPYERYLTPAGLEHHHHHH,not soluble
6,MGTVHARSLDPLPMNGPDFGSPDDADLVEVEPQKKQEILENKDVVVQRVHFEGLGRTKDDLVAHEIGQVFKAKNLIEVMRKSHEAREKLLRLGVFRNVEVLIDTCEGEDAVPNGLDVTFEVTELRRVTGSYNTMVGNNEGSMVLGLKLPNLFGRAEKMTFQFSYGTKETSYGLSFFKPQVGNFERNFSVNLYKVTGQFPWSSLRETDRGVSAEINFPIWKTSHTLKWEGVWRELGCLARTASFTIREESGHTLKSSLSHSMVIDSRNASILPKSGALLKINQELAGYTGGDVSFLKEDFELQLNRQLTWDSVLSTSLWGGMLVPIGDRPSSIADRFYLGGPTSVRGFSMYSIGPQSEGDYLGGEAYWAGGVHLYTPLPFRPGRGGFGDLFRTHFFLNAGNLCNLNYGEGPGAHLRRLAECIRWSYGAGLVLRLGNIARLELNYCIPMGVQSGDRICDGVQFGAGIRFL,soluble
7,MGTVHARSMDSYPMYGRDLGVNTDDMEVMEAVQETKQEVLENKDVVVQHVNIEGLGRTKEDYLGYEISDVFTARNLVEVMRKSHEARQRLLRLGIFRDVEVVIDISEGADALPNGLDVTFEVTELKRLTGSYNTMVGNNEGSMVLGIKLPNMLGRGEKLTFQFSYGTKETSYGLSFFKPQSGYFERNFTVNLYKVTGQFPWSSLKETDRGVSTELSLPLWMTDHTLKWEGVWRELGCLARSASFAVREESGHTLKSALSHTMVVDTRNSAILPRKGALLRINQELAGYTGGDANFLKEDVELQLNKQFIWGSVLSASLWGGMIYPLGAQPTSIADRFYLGGPTSVRGFGMYSIGPQSEGDYLGGEAYWAGGLHLYTPLPFRSNKGGLADLFRTHFFLNAGNICNLNYGEGPRAHLQKLAECIRWSYGAGIILRLGNIARLELNYCFPMGVQSGDRICDGVQFGAGIRFL,soluble
8,MGVFLFDRDCRYTVAGGGEISSAGLTPADFEGSKPHDLFSEAIADELEHYYREALDGHSHSFEQQYRGKHYRVQTVPVRDDNGEVISGLAVSEDVTARRERQRTLERQNERLREFAGVVSHDLRNPLNVAQGRLKLARAECDSEHLDNVAAAIERSNRLIDDLLTLASSGDEVTETASLDLGAVVDGCWQNVPTDGATLVVRSEQTVVADRGRLEQLLENLVRNAVEHAFPQSEVSLDAAEGDASDLTVTVGALEDGFYVEDTGPGIPPEERDDVFKGGYSTAADGTGFGLRIVRQIAEAHGWTVTVADGEHGGARFEVRGIETT,not soluble
9,MGYKTILAVVDNVSNTQKLGEFVVSLADQFSSHVIGLHMETLAAVPLVAPMEIPDPATVQALQDVAHKETTDVGTLFERTLSTNGISHEWRSFVTSVGYASASAIDSARCADLIVARQSSSSALSDSRSDIDGFLYESGRPVLLVPHVLTVAKPIKRVLIAWNGSREATRATFDALPFLKAADSVEIFSVDQSESETQSAGLAGAELAATLARHGVNVTVTSQEKIAGLSPQAAIENRLSDNSIDLLVMGAYGHSRWWELLFGGVTRTLLDSMTAMTLLSR,soluble
10,MGYSSDTTPCCFAYIARPMPRAHIKEYFYTSGKCSNPAVVFVTRKNRQVCANPEKKWVREYINSLEMS,soluble
11,MHAEKDLITKETTQPVPPPAAVVTHQPITKRYDPPISISPPPQRNNYSHVKVTVDSDTSPRQQAFIDDIVAKGGKLAVVTYDRGGQNTKELTVHKGEYLEVIFDERNWWECKNMHQRVGYVPHTILSMVPFEQQQYASPNHHNNSSSTGGYNNGHHQGPGMLPEDAPSYVKERQGKRGEFRYF,not soluble
12,MHAQFHHVSLLARHGQENQSFYTKLLGLRFVKNTVNQDNNRMPHYFYGDYQGTPGSLVTFFIVPLLGNRYEEKNYLATIGLKIPQNSLSFWEQRLTENKIPFNKKEKSLHFSDPDDTHIILTEVPENPLKETLVVSNDIPAAVQIIGLASTEFHVPDSEKTLAFFETFLGWQAVGNTIILSETESFSVHQTTSDKTSRMGRGSMDHIAFSVADDEALQELHTRALAQGWEIEMYVSRGYFKSLYIREPGGNRVEFATLTPGFTLDEPLEHLGETLALPPFLEPKRTAIEANLYKDM,not soluble
13,MHCPFCDTEETKVIDSRLVSDGYQVRRRRECGHCHERFTTFEMAELIIPKIIKTDGTREPFNEDKLRSGIQHALEKRPVSADDVEKAINHIILQLRATGEREVPSKLVGKLAMNELKKLDKVAYIRFASVYLSFDDIDQFTIEIEKLKD,not soluble
14,MHFKRVVKWGLNMYQNQRIKDKINILGVNFDNTTMLEMLENIKQFISSNTDDNLFIVTANPEIVDYATEHELYRNLINQADYVVPDGTGIVKASKRLKQPLKRRVPGIELLEECLKIAHVSHQRVYLLGSKNEIVETAEKKLQSQYPNIHFAHHHGYIHLEDETVIKRITSFNPDYIFVGMGFPKQEQWIQKHKDKFKHTVMMGVGGSFEVFSGSKKRAPQIFRKLNIEWVYRVLIDWKRIGRMISIPKFMLKVAIQKYKMKSK,not soluble
15,MHFRMKVLENSSKHNTPKKQKTFQHYLPAGDRCYSCIHCRANLAAHAELISKSFQGSQGKAYLFNAVVNVGCGPAEERVLLTGLHAVADIYCEICKTTLGWKYEHAFESSQKYKEGKFIIELAHMVKDNGWDEQNDS,not soluble
16,MHGNPMNIPPVSIAAAKAALIEQYADPTLRRRASMLWGTRGVGKSSIVRQVAAHYRVPLIDLRLTTIEPVDIRGAIYADENLAKTVWFPPEFLPSRDQPEGVLFLDELTAADQRLQISAYSLILDRRVGNYHLPDGWQVVAAGNASFHGAISHDMGTALADRMFHFNVQTAIDAFLNHAITQEFAPEVMAYLKIRPDKLDDTQAQLAGDHLIGASPRGWEDISNVLKSGLSDHAKRLFVQGRIGAANAAEFFGVLREIQAGTDVLKLLAARPGPETAALLPKSLDALYGMLYGLLAASTDKQTMARALEIIEQLPDIRSAAPLPIREAQTLAMELLMQRGLENGLESAILDSPAYASYAGRRQLEASDALEHHHHHH,not soluble
17,MHHHHHHENLYFQSNAMGSTRPIDGLTDEDIREILTRYKKIALVGASPKPERDANIVMKYLLEHGYDVYPVNPNYEEVLGRKCYPSVLDIPDKIEVVDLFVDPAKAWRFVVYAIKKGAKVVWFQYNTYYPLAARQAKEAGLIIVANRCMMREHERLLGEK,soluble
18,MHHHHHHMTSVMSHEFQLATAETWPNPWPMYRALRDHDPVHHVVPPQRPEYDYYVLSRHADVWSAARDHQTFSSAQGLTVNYGELEMIGLHDTPPMVMQDPPVHTEFRKLVSRGFTPRQVETVEPTVRKFVVERLEKLRANGGGDIVTELFKPLPSMVVAHYLGVPEEDWTQFDGWTQAIVAANAVDGATTGALDAVGSMMAYFTGLIERRRTEPADDAISHLVAAGVGADGDTAGTLSILAFTFTMVTGGNDTVTGMLGGSMPLLHRRPDQRRLLLDDPEGIPDAVEELLRLTSPVQGLARTTTRDVTIGDTTIPAGRRVLLLYGSANRDERQYGPDAAELDVTRCPRNILTFSHGAHHCLGAAAARMQCRVALTELLARCPDFEVAESRIVWSGGSYVRRPLSVPFRVTSSR,soluble
19,MHHHHHHSSGLVPRGSGMKETAAAKFERQHMDSPDLGTDDDDKAMADIGSEFDMANIAVQRIKREFKEVLKSEETSKNQIKVDLVDENFTELRGEIAGPPDTPYEGGRYQLEIKIPETYPFNPPKVRFITKIWHPNISSVTGAICLDILKDQWAAAMTLRTVLLSLQALLAAAEPDDPQDAVVANQYKQNPEMFKQTARLWAHVYAGAPVSSPEYTKKIENLCAAGFDRNAVIVALSSKSWDVETATELLLSN,soluble
20,MHHHHHHSSGRENLYFQGPQDLMVTCTAPVNIAVIKYWGKRDEALILPINSSLSVTLHQDQLKTTTTVAISKDFTEDRIWLNGREEDVGQPRLQACLREIRRLARKRRSTEDGDTLPLSLSYKVHVASVNNFPTAAGLASSAAGYACLAYTLAQVYGVEGDLSEVARRGSGSACRSLYGGFVEWQMGEQADGKDSIARQIAPEWHWPQLRILILVVSADKKQTGSTVGMQTSVETSTLLKFRAESVVPERMKEMTRCIQEQDFQGFAQLTMKDSNQFHATCLDTFPPISYLNDTSRRIIQLVHRFNTHHGQTKVAYTFDAGPNAVIFTLEDTVAEFVAAVRHSFPPAANGDKFLKGLQVAPVLLSDELKAALVVEPSPGGVQYIIATQVGPGPQVLDDTHDHLLGQDGLPQRDL,soluble
21,MHHHHHHSSGVDLGTENLYFQSMKSVHSSPQNTSHTIMTFYPTMEEFADFNTYVAYMESQGAHQAGLAKVIPPKEWKARQMYDDIEDILIATPLQQVTSGQGGVFTQYHKKKKAMRVGQYRRLANSKKYQTPPHQNFADLEQRYWKSHPGNPPIYGADISGSLFEESTKQWNLGHLGTILDLLEQECGVVIEGVNTPYLYFGMWKTTFAWHTEDMDLYSINYLHFGEPKTWYVVPPEHGQHLERLARELFPDISRGCEAFLRHKVALISPTVLKENGIPFNCMTQEAGEFMVTFPYGYHAGFNHGFNCAEAINFATPRWIDYGKMASQCSCGESTVTFSMDPFVRIVQPESYELWKHR,soluble
22,MHHHHHHSSGVDLGTENLYFQSMSSVTASAAPGTASLVPDYWIDGSNRDALSDFFEVESELGRGATSIVYRCKQKGTQKPYALKVLKKTVDKKIVRTEIGVLLRLSHPNIIKLKEIFETPTEISLVLELVTGGELFDRIVEKGYYSERDAADAVKQILEAVAYLHENGIVHRDLKPENLLYATPAPDAPLKIADFGLSKIVEHQVLMKTVCGTPGYCAPEILRGCAYGPEVDMWSVGIITYILLCGFEPFYDERGDQFMFRRILNCEYYFISPWWDEVSLNAKDLVRKLIVLDPKKRLTTFQALQHPWVTGKAANFVHMDTAQKKLQEFNARRKLKAAVKAVVASSRLG,soluble
